# IntAct's records for PubMed 17563362
# B1: CAP-Gly domain-containing linker protein 1 (Homo sapiens), P30622-2 (parent)
# chain: MSMLKPSGLKAPTKILKPGSTALKTPTAVVAPVEKTISSEKASSTPSSETQEEFVDDFRVGERVWVNGNKPGFIQFLGETQFAPGQWAGIVLDEPIGKNDGSVAGVRYFQCEPLKGIFTRPSKLTRKVQAEDEANGLQTTPASRATSPLCTSTASMVSSSPSTPSNIPQKPSQPAAKEPSATPPISNLTKTASESISNLSEAGSIKKGERELKIGDRVLVGGTKAGVVRFLGETDFAKGEWCGVELDEPLGKNDGAVAGTRYFQCQPKYGLFAPVHKVTKIGFPSTTPAKAKANAVRRVMATTSASLKRSPSASSLSSMSSVASSVSSRPSRTGLLTETSSRYARKISGTTALQEALKEKQQHIEQLLAERDLERAEVAKATSHVGEIEQELALARDGHDQHVLELEAKMDQLRTMVEAADREKVELLNQLEEEKRKVEDLQFRVEEESITKGDLEVATVSEKSRIMELEKDLALRVQEVAELRRRLESNKPAGDVDMSLSLLQEISSLQEKLEVTRTDHQREITSLKEHFGAREETHQKEIKALYTATEKLSKENESLKSKLEHANKENSDVIALWKSKLETAIASHQQAMEELKVSFSKGLGTETAEFAELKTQIEKMRLDYQHEIENLQNQQDSERAAHAKEMEALRAKLMKVIKEKENSLEAIRSKLDKAEDQHLVEMEDTLNKLQEAEIKVKELEVLQAKCNEQTKVIDNFTSQLKATEEKLLDLDALRKASSEGKSEMKKLRQQLEAAEKQIKHLEIEKNAESSKASSITRELQGRELKLTNLQENLSEVSQVKETLEKELQILKEKFAEASEEAVSVQRSMQETVNKLHQKEEQFNMLSSDLEKLRENLADMEAKFREKDEREEQLIKAKEKLENDIAEIMKMSGDNSSQLTKMNDELRLKERDVEELQLKLTKANENASFLQKSIEDMTVKAEQSQQEAAKKHEEEKKELERKLSDLEKKMETSHNQCQELKARYERATSETKTKHEEILQNLQKTLLDTEDKLKGAREENSGLLQELEELRKQADKAKAAQTAEDAMQIMEQMTKEKTETLASLEDTKQTNAKLQNELDTLKENNLKNVEELNKSKELLTVENQKMEEFRKEIETLKQAAAQKSQQLSALQEENVKLAEELGRSRDEVTSHQKLEEERSVLNNQLLEMKKRESKFIKDADEEKASLQKSISITSALLTEKDAELEKLRNEVTVLRGENASAKSLHSVVQTLESDKVKLELKVKNLELQLKENKRQLSSSSGNTDTQADEDERAQESQIDFLNSVIVDLQRKNQDLKMKVEMMSEAALNGNGDDLNNYDSDDQEKQSKKKPRLFCDICDCFDLHDTEDCPTQAQMSEDPPHSTHHGSRGEERPYCEICEMFGHWATNCNDDETF
# Variants of: B1
# Conditions: with mare1_human MAPRE1, Q15691
# mare1_human MAPRE1, Q15691, sequence (Q15691 whole entry): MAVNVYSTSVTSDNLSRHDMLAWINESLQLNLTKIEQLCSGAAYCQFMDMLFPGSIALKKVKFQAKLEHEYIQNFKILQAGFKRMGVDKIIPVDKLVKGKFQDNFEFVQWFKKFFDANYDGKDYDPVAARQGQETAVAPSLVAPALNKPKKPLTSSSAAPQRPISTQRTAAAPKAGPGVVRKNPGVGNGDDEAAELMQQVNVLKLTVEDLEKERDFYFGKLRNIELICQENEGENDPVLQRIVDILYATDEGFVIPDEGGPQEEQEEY
row,Variant,effect of a mutation on the interaction
1,K277A,decreasing interaction strength
2,K252A,disrupting interaction strength
3,K224A,disrupting interaction strength

# Variants of: B1
# Conditions: with tba1a_human TUBA1A
row,Variant,effect of a mutation on the interaction
1,N253A,decreasing interaction strength
2,N253D,decreasing interaction strength
